Data from patent US20260284241A1, “DOSAGE REGIMEN FOR SHORT-LIVED RADIOISOTOPE” (AdvanCell Pty Limited, priority 2023, published 2026).

Test system: metastatic castration-resistant prostate cancer
Assay: 212Pb SPECT/CT imaging (biodistribution) in a patient with metastatic castration-resistant prostate cancer
Type: in vivo, human
Details: 60 MBq
Description: To gauge the biodistribution and inform patient tolerability of a ^212Pb radiopharmaceutical comprising an acetamide-based chelator, 60 MBq of ^212Pb-ADVC001 was administered to a person with metastatic castration-resistant prostate cancer. SPECT/CT imaging was performed at 1.5, 5, 20, and 28 h following infusion. […] FIG. 3B depicts sagittal and coronal images at 1.5 h after injection (p.i.). Further details are published in Griffths et al., Journal of Nuclear Medicine, 2024, 65 (7), the entire contents of which are hereby incorporated herein by reference.

HO-Glu-CO-Lys[SubA-D-Lys-D-Phe-D-Tyr(3I)-(Pent-^212Pb-DO3AM)]-OH [^212Pb-ADVC001]
kidney clearance (patient with mCRPC, SPECT/CT (FIG. 3A)): rapid kidney clearance | tumour uptake on 212Pb SPECT/CT images (person with mCRPC, SPECT/CT at 1.5, 5, 20 and 28 h following infusion): rapid tumour uptake
